In patent publication US20260007697A1 (FUNDACI N PARA LA INVESTIGACI N M DICA APLICADA, published 2026):

Key:
[1] = target: recombinant human EDA protein (extra-domain A of fibronectin), His-tagged (human) (UniProt P02751); experiment: flow cytometry, CD4+ control PSMA CAR-T cells incubated with soluble human His-EDA (50 µg/ml per legend paragraph 32), anti-His-APC; light grey histogram, lower number of the panel humanEDA, CD4 row [cont.) C]
[2] = target: recombinant mouse EDA protein (extra-domain A of fibronectin), His-tagged (mouse) (UniProt P11276); experiment: flow cytometry, CD4+ control PSMA CAR-T cells incubated with soluble mouse His-EDA (50 µg/ml per legend paragraph 32), anti-His-APC; light grey histogram, lower number of the panel mouseEDA, CD4 row [cont.) C]
Sequence of recombinant mouse EDA protein (extra-domain A of fibronectin), His-tagged (mouse) (P11276 1721-1810 limits assumed): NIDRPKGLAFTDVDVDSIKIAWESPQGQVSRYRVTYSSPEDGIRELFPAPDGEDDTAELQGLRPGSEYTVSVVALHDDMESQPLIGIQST

[3] = target: recombinant human EDA protein (extra-domain A of fibronectin), His-tagged (human) (UniProt P02751); experiment: flow cytometry, CD8+ control PSMA CAR-T cells incubated with soluble human His-EDA (50 µg/ml per legend paragraph 32), anti-His-APC; light grey histogram, lower number of the panel humanEDA, CD8 row [cont.) C]
[4] = target: recombinant mouse EDA protein (extra-domain A of fibronectin), His-tagged (mouse) (UniProt P11276); experiment: flow cytometry, CD8+ control PSMA CAR-T cells incubated with soluble mouse His-EDA (50 µg/ml per legend paragraph 32), anti-His-APC; light grey histogram, lower number of the panel mouseEDA, CD8 row [cont.) C]
[5] = target: T1, recombinant mouse EDA protein (extra-domain A of fibronectin), His-tagged (mouse, UniProt P11276 1721-1810); experiment: IFN-gamma release (ELISA) by CAR-T cells on EDA-coated plates, 48 h (functional read-out, not direct binding)
T1 construct: Recombinant protein carrying a His tag; also called murine EDA; EDA (m)
T1 sequence (P11276 1721-1810 limits assumed): as above
Method: Also CAR-T cells were plated for 24 h in the presence of irradiated PM299L-EDA and PM299L-Thy1.1 cells. The number of IFN-γ producing cells was measured by ELISPOT as described by Lozano et al. (Lozano T et al., 2019). CAR-T cell proliferation and IFN-γ production were measured by 3H-thymidine incorporation (0.5 μCi per well) and ELISA, respectively, as described by Casares et al. (Casares N et al., 2010). In some cases, CAR-T cell proliferation was measured by Cell trace violet (CTV) dilution assay; Lymphocytes were incubated with the dye (5 μM) for 15 minutes at 37° C. and washed with RPMI 10% FBS. 8×10⁵ labelled lymphocytes were plated and co-incubated with PM299L-EDA^high and PM299L-Thy1.1 tumor cells at a ratio of 1:1 for 72 hours at 37° C. Subsequently, the proliferating population (measured by CTV dilution) was analyzed within GFP+ lymphocytes. The proliferation index was calculated as the ratio between proliferating cells in the presence of tumor cells expressing EDA (PM299L-EDA^high) and the number of proliferating cells in the presence of tumor cells not expressing EDA (PM299L. Thy1.1) at the end of the co-culture.
EDA CAR-T cells were generated by retroviral transduction of CD4⁺ or CD8⁺ T cells with the corresponding retrovirus. Five days after infection, T cells were analyzed by flow cytometry. […] IFN-g released to the culture supernatant was measured by ELISA.

[6] = target: T2, recombinant human EDA protein (extra-domain A of fibronectin), His-tagged (human, UniProt P02751 1722-1811); experiment: Bio-Layer Interferometry (Octet N1), scFv F8 on AR2G biosensors, soluble EDA
T2 construct: Recombinant protein carrying a His tag; also called hEDA; EDA (h)
T2 sequence (P02751 1722-1811 limits assumed): as the sequence (P11276 1721-1810 limits assumed) above, with R44H, D54E, I87T counted along it
Method: (§1) The resulting plasmid was transfected into BL21(DE3) cells for the expression of the recombinant scFv which was purified by affinity chromatography using protein A Sepharose (Amersham Biosciences) according to the manufacturer's instructions. Purified antibody fragments were analyzed by Coomassie and Western blot using anti-His antibodies. Recognition of EDA protein by the purified scFv F8 fragment was tested by ELISA using plates coated with recombinant EDA protein produced as described previously (Lasarte J J et al., 2007). The equilibrium dissociation constant (KD) of scFv F8 to soluble human and mouse EDAs was calculated by Bio-Layer Interferometry (BLI) using an Octet N1 (Sartorius) (FIG. 13). The scFv F8 was coated to the AR2G Biosensors (Fortébio) following manufacturer's instructions.
(§2) To evaluate the functionality of the CAR construct, EDA CAR-T cells were cultured in EDA coated plates for 48 h. Both CD4+ and CD8+ EDA CAR-T, but not PSMA CAR-T cells produced high amounts of IFN-γ (FIG. 3D) and proliferated in response to EDA (FIG. 3E). […] This discrepancy could be due to the methodological differences between assays. Indeed, in the binding experiments EDA proteins are added in solution and bind to the CAR-T cells directly. […]

[7] = target: T1, recombinant mouse EDA protein …; experiment: as above
Method: as §1, §2

[8] = target: T2, recombinant human EDA protein …; experiment: Bio-Layer Interferometry (Octet N1), scFv F8 on AR2G biosensors, soluble hEDA at 1, 2, 4 and 8 uM; table column Kd (1/s) [cont.) E]
Description: as §1, with “A DNA sequence coding for the scFv recombinant antibody fragment F8 (Rybak J N et al., 2007) was cloned in pET20b plasmid (Novagen), which enables expression of fusion proteins carrying six histidine residues at the carboxyl terminus. The resulting” for “The resulting”

[9] = target: T1, recombinant mouse EDA protein …; experiment: Bio-Layer Interferometry (Octet N1), scFv F8 on AR2G biosensors, soluble mEDA at 1, 2, 4 and 8 uM; table column Kd (1/s) [cont.) E]
Description: as §1, with “A DNA sequence coding for the scFv recombinant antibody fragment F8 (Rybak J N et al., 2007) was cloned in pET20b plasmid (Novagen), which enables expression of fusion proteins carrying six histidine residues at the carboxyl terminus. The resulting” for “The resulting”

Sequence of recombinant human EDA protein (extra-domain A of fibronectin), His-tagged (human) (P02751 1722-1811 limits assumed): as the sequence (P11276 1721-1810 limits assumed) above, with R44H, D54E, I87T counted along it

Molecule: PSMA CAR (anti-human PSMA scFv from mouse hybridoma J591 in the murine 4-1BB-CD3zeta cassette) on mouse T cells
- MFI (mean fluorescence intensity) [1]: 269
- MFI (mean fluorescence intensity) [2]: 49
- MFI (mean fluorescence intensity) [3]: 203
- MFI (mean fluorescence intensity) [4]: 46

B1: chimeric EDA CAR with anti-EDA C27 scFv (VH/VL of antibody 27A12.70) in the murine 4-1BB-CD3zeta cassette, on mouse T cells (other)
chain: DVQLQESGPDLVKPSQSLSLTCTVTGYSITSGYSWHWIRQFPGNKLEWMGYIHYSGIANYNPSLKSRISITRDTSKNHFFLQLNSVTTEDTATYYCATEKTGFFDYWGQGTTLTVSSGGGGSGGGGSGGGGSGGGGSDVVMTQTPLSLPVSLGDQASISCRSSQSLVHSNGNTYLHWYLQKPGQSPKLLIYKVSNRFSGVPDRFSGSGSGTDFTLKISRVEAEDLGVYFCSQSAHVPPTFGGGTKLEIKR
notes: also called C27 EDA CAR-T; clone C27; not shown: limits on that entry
- binding result [5]: no binding (tested: 5 µg/ml coated (FIG. 14 legend))

B2: anti-EDA F8 scFv (purified recombinant antibody fragment) (scFv)
scFv: EVQLLESGGGLVQPGGSLRLSCAASGFTFSVMKMSWVRQAPGKGLEWVSAISGSGGSTYYADSVKGRFTISRDNSKNTLYLQMNSLRAEDTAVYYCAKSTHLYLFDYWGQGTLVTVSSGGGGSGGGGSGGGGSGGGGSEIVLTQSPGTLSLSPGERATLSCRASQSVSNAFLAWYQQKPGQAPRLLIYGASSRATGIPDRFSGSGSGTDFTLTISRLEPEDFAVYYCQQMRGRPPTFGQGTKVEIKHHHHHH
notes: Expressed in E. coli BL21(DE3) from pET20b and purified on protein A Sepharose; also called scFv F8; scFv (F8)
- Kd [6]: 77.6 nM
- Kd [7]: 99.5 nM
- koff [8]: 0.000532 s⁻¹
- koff [9]: 0.000342 s⁻¹
